{"source": "paper PMC8652540", "target": "SARS-CoV-2 nucleocapsid protein (NCAP, N protein) (SARS-CoV-2, UniProt P0DTC9 1-419)", "test": "EMSA", "conditions": "protein: recombinant; tags: N-terminal GFP and His (N-GFP-NCAP-His, pET-28a(+)-TEV) as purified; EMSA text says only recombinant NCAP; chain copies: 2; single strand (legend says 24 bp)"}
{"binder": "UGCUUACGGUUUCGUCCGUGUUGC (ssRNA)", "note": "[5'UTR leader RNA probe]", "values": [{"measurement": "binding result", "result": "binds"}]}
